Assay [1] concerns the target bovine HD1 (bovine thymus trapoxin binding proteins p46-p49) (bovine) (UniProt Q32PJ8). Kind of assay: depletion of bovine thymus Mono Q fractions by the K-trap affinity matrix.
Assay [2] has the same target. In words: cell-based or functional assay.

Sequence of bovine HD1 (bovine thymus trapoxin binding proteins p46-p49) (bovine) (Q32PJ8 whole entry): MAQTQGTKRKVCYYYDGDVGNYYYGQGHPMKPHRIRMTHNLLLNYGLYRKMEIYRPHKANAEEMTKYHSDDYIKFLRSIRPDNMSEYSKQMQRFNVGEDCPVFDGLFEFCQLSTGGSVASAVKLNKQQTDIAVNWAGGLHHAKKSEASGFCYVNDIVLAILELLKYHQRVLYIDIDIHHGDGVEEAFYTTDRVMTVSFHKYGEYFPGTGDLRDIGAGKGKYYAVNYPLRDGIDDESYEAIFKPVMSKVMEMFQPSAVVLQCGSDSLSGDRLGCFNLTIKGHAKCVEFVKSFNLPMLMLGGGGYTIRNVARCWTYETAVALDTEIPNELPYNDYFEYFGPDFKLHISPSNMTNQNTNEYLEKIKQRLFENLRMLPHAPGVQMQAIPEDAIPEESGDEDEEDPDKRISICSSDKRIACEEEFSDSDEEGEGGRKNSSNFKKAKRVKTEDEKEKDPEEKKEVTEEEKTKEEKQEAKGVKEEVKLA

K-trap affinity matrix (peptide) showed a percent of trapoxin binding and histone deacetylase activity depleted in assay [1] of 90%.

In assay [2], trapoxin (peptide) had an inhibition of histone deacetylase activity of 20 nM.

Values taken from patent publication US20090221474A1.
